Test results: PMC9104438, “Application of a Fluorescence Anisotropy-Based Assay to Quantify Transglutaminase 2 Activity in Cell Lysates” (International Journal of Molecular Sciences, 2022)

Tests used:
[1] = target: T1, hTGase 6 (Homo sapiens, UniProt O95932); experiment: FA-based assay, kinetic characterization of acyl donor DMC with R-I-Cad; type: biochemical; parameters: purchased Zedira T021; conditions: hTGase 6 5 µg/mL, R-I-Cad 0.74 µM, mean (SEM)
T1 sequence (O95932 1-706): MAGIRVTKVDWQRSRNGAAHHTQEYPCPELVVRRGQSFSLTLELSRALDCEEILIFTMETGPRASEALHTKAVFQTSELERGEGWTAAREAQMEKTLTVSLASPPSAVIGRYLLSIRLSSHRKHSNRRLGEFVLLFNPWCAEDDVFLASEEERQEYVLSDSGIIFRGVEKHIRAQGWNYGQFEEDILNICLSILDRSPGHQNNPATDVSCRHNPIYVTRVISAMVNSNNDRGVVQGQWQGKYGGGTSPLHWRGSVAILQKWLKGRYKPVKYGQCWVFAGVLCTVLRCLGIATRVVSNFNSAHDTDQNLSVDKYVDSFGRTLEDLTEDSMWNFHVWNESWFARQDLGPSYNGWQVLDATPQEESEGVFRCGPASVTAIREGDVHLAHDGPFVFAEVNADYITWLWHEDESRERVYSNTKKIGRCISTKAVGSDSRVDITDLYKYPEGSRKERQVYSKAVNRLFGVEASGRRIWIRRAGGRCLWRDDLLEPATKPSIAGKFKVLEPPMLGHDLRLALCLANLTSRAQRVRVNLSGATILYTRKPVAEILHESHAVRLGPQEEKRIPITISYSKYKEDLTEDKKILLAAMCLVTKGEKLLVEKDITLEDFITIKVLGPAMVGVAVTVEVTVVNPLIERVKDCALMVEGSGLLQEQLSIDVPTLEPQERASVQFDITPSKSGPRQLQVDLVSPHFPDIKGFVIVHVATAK
Experimental: For the kinetic characterization of DMC (Figure 1B) in the presence of a fixed concentration of R-I-Cad (0.74 µM), eight different concentrations of DMC (0.3–300 µM) were used (2–3 separate experiments, each performed in duplicate). The corresponding stock solutions of DMC and R-I-Cad were prepared in assay buffer A and DMSO, respectively. […] Values for Km, Ki and Vmax were calculated according to the equation of substrate inhibition (Equation (2)). (2) v=Vmax∗[S]/Km+[S]∗(1+[S]/Ki)

[2] = target: T2, hTGase 2 (Homo sapiens, UniProt P21980); parameters: purchased Zedira T022; method as in PMID 29664627; conditions: hTGase 2 5 µg/mL, R-I-Cad 0.74 µM, mean (SEM), cited from earlier work
T2 sequence (P21980 1-687): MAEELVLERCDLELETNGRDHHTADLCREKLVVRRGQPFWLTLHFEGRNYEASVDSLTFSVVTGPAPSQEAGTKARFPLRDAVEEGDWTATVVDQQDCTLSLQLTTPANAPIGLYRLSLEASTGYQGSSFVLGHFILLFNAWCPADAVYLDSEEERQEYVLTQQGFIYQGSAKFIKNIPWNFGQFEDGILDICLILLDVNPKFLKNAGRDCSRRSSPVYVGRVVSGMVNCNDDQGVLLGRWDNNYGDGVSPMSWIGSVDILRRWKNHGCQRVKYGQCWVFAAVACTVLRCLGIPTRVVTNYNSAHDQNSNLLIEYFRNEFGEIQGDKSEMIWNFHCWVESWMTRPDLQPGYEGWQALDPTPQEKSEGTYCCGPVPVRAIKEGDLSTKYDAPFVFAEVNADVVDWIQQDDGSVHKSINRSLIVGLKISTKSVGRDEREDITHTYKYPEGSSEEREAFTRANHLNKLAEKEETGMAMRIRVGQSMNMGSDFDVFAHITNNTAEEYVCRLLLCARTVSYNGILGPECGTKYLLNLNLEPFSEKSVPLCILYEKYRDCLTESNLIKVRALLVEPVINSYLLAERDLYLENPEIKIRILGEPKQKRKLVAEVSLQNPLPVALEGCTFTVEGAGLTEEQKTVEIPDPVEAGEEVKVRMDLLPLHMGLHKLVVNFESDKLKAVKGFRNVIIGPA

[3] = read-out: Ki (substrate inhibition)

Question: What does the source list for N,N-dimethylated casein [DMC]?
Answer: Km [1]: 16.6 µM; Ki [1, 3]: 189 µM; Vmax ([1]; pH 8.0, 30 °C): 27.1 (4.1) mA mL s^−1 mg^−1; Km [2]: 2.78 µM; Ki [2, 3]: 174 µM; Vmax ([2]; pH 8.0, 30 °C): 26.4 (2.8) mA mL s^−1 mg^−1
